Data reported in paper PMC7386247.

What was measured:
PARP2 (Homo sapiens) = experiment: fluorescence polarization; conditions: not stated in the material (methods in supplement)
PARP1 (Homo sapiens) = experiment: fluorescence polarization; conditions: not stated in the material (methods in supplement)

| Substance | Kd (PARP2 (Homo sapiens)) [nM] | Kd (PARP1 (Homo sapiens)) [nM] |
| --- | --- | --- |
| 19mer | 55 |  |
| gas5 | 40 | 350 |
| p18mer DNA | 59 | 13 |
| tRNALeu | 37 | 159 |
